Assay results taken from article PMC5043019, “Unique and Universal Features of Epsilonproteobacterial Origins of Chromosome Replication and DnaA-DnaA Box Interactions” (Frontiers in Microbiology, 2016).

Target: the molecule itself
Test: electron microscopy; purified DnaA (3 mM ATP) incubated with supercoiled plasmids carrying oriC1-dnaA-oriC2 (pAbori1ori2, pSdori1ori2, pWsoriori2); complexes stabilised by glutaraldehyde cross-linking, linearised with ScaI; looped DNA with one protein complex joining oriC1 and oriC2; DnaA molecules are DNA-bound

Row | Protein | binding result
1 | Arcobacter butzleri DnaA protein (natural protein, A. butzleri RM4018, UniProt A8EQT0 1-438, looked up, chromosomal replication initiator protein DnaA of Arcobacter butzleri RM4018, cloned from genomic DNA; Supplemented with 3 mM ATP for electron microscopy; also called A. butzleri DnaA; source: purified as described in (Zawilak-Pawlik et al., 2006) with minor modifications (Supplementary Materials)) MTTKEFLTIIQKEANQIDYERYLKQLVYKKVSSDNKIAIFEVNNKYIASWIKSKFTNLIQHCFEIYDGSKPTIEIKLSNEKKSKKEILKEQTQNESTESTILNPSYTFDSFVVGPSNQMAYNASLAVANKPGIQYNPLFIYGGTGLGKTHLLQAVGNHAIEKGNTVIYVTIEQFMNDFTFSIKNKNMEHFRNKYRKCDVLLIDDIQFLSGKEQTQEEFFHTFNELHNAKKQIVMTSDRLPSQIAGLVDRLKSRFEWGLTADVQIPGLETKIAIIEKKSELNGICLSREIINFIATNLDNSIREIEGVLIRINASASLLNQEITLPMVQGLLKEQIKETKENVKLPDIINIVANQLNIKPSDIKSKKRTATVANARRIVIYLVRELTHNSMPDIAKFLGMKDHSAISHNIKKANELIEKDENFKLIIENLKNKIINSRE | binds
2 | Wolinella succinogenes DnaA protein (natural protein, W. succinogenes DSM 1740, UniProt Q7MSY2 1-437, looked up, chromosomal replication initiator protein DnaA of Wolinella succinogenes DSM 1740, cloned from genomic DNA; Supplemented with 3 mM ATP for electron microscopy; also called W. succinogenes DnaA; source: purified as described in (Zawilak-Pawlik et al., 2006) with minor modifications (Supplementary Materials)) MLGDTTLKQLKDEISTLEYERYIKQLRYDEEASRTDLAVYIAPNQFIANWVKTKYGERLAHLFELSTGIRPKIEIRLGSLKKDVKSSSPKAGVSKGQKSTILNPSFTFDSFVVGNSNRFAYEVSQNVAKKQGIAYNPLLIYGGTGLGKTHLLNSIGNYNVAKGKSVIYVTSEQFLNDYLYHIRNNTMDRFRDKYRACDYLLIDDVQFFGGKPQIQEEFFHTFNELHNKNKQIVLTSDKTPKQIAGLEERLKSRFEWGMVSDIQPPELETKINIIKKKCEFDGIYLSNEIISYIATNMDNNIREIEGIIIKLNAYANLMNQEITLQFAKNVLKEQIKEERENITLENIIEVVSKELNVKPAEIKSKGRSKNIANARRIVIFLARTLTPNSMPSLAQFFGMKDHSSVSKAMKTVKTEIEEDANFKMVIEELKNKIKSRN | binds
